Test results as given in patent US20250282833A1.

What was measured:
[1] = target: Anc80 AAV capsid viral protein VP1
[2] = target: AdV5 pTP (human adenovirus C serotype 5) (UniProt P04499)
[3] = target: AdV5 pVIII (human adenovirus C serotype 5) (UniProt P24936)
[4] = target: T1, AdV5 pµ (human adenovirus C serotype 5) (UniProt Q2KS10)
T1 sequence: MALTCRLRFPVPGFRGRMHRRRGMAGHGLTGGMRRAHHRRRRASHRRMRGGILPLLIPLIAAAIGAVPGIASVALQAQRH

[5] = target: AdV5 AVP (human adenovirus C serotype 5) (UniProt P03253)
[6] = target: AdV5 Penton base (human adenovirus C serotype 5) (UniProt P12538)
[7] = target: AdV5 pIX (human adenovirus C serotype 5) (UniProt P03281)
[8] = target: T2, AdV5 pVII (human adenovirus C serotype 5) (UniProt P68951)
T2 sequence (chain, acetylation at S2 (100.0%)): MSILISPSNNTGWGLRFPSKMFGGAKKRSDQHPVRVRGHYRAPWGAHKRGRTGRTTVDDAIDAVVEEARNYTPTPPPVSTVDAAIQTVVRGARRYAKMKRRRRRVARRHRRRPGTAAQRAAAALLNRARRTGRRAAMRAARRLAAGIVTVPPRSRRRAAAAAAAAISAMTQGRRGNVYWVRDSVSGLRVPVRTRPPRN

[9] = target: T3, AdV5 pIIIa (human adenovirus C serotype 5) (UniProt P12537)
T3 sequence: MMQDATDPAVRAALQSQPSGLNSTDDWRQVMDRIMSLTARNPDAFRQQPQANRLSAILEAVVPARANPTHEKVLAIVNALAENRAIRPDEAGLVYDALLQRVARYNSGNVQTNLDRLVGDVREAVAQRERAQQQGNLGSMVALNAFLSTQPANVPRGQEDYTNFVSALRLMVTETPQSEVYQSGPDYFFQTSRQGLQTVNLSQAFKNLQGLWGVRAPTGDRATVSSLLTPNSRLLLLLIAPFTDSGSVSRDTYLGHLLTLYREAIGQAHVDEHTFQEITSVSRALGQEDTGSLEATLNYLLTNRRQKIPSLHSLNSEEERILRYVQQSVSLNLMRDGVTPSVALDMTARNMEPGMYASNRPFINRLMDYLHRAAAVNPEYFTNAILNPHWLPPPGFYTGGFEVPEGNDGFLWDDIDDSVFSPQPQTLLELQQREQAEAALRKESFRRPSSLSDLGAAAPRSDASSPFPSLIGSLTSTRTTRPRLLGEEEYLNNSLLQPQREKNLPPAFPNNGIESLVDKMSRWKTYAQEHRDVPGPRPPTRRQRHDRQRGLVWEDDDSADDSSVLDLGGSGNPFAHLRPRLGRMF

[10] = target: AdV5 Hexon (human adenovirus C serotype 5) (UniProt P04133)
[11] = target: T4, AdV5 pV (human adenovirus C serotype 5) (UniProt P24938)
T4 sequence: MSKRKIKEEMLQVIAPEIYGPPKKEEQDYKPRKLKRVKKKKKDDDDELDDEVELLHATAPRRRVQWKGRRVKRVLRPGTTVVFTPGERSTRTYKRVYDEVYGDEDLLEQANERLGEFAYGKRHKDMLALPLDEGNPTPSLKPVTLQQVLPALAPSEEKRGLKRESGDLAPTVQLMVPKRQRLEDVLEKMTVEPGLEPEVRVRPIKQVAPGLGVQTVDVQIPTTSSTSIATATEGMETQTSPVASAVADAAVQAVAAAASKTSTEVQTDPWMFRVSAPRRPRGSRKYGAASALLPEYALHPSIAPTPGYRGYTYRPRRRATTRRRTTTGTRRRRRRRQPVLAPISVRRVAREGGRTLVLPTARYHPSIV

[12] = target: T5, AdV5 pIVa2 (human adenovirus C serotype 5) (UniProt P03271)
T5 sequence: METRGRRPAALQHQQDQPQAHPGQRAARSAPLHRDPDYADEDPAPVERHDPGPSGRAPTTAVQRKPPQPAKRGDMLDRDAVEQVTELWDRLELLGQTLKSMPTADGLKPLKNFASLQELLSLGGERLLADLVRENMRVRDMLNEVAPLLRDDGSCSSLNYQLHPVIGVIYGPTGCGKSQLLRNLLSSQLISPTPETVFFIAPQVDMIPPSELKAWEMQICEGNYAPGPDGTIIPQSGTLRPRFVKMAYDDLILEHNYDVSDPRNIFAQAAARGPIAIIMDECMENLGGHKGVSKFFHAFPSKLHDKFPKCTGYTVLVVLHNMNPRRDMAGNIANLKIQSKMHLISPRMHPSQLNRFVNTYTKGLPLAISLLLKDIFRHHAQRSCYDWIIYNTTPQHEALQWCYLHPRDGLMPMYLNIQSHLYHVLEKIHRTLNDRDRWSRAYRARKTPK

[13] = target: AdV5 Fiber (human adenovirus C serotype 5) (UniProt P11818)
[14] = target: AdV5 pVI (human adenovirus C serotype 5) (UniProt P24937)

Sequencing grade trypsin, sequence (P00761 9-231 limits assumed): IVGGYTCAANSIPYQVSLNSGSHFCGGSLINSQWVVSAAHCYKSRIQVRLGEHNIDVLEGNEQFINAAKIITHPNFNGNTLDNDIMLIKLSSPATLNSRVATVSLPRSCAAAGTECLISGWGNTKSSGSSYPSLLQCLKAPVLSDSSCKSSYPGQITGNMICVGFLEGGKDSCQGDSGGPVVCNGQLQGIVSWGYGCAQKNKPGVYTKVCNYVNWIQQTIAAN
AdV5 Penton base (human adenovirus C serotype 5), sequence (P12538 whole entry): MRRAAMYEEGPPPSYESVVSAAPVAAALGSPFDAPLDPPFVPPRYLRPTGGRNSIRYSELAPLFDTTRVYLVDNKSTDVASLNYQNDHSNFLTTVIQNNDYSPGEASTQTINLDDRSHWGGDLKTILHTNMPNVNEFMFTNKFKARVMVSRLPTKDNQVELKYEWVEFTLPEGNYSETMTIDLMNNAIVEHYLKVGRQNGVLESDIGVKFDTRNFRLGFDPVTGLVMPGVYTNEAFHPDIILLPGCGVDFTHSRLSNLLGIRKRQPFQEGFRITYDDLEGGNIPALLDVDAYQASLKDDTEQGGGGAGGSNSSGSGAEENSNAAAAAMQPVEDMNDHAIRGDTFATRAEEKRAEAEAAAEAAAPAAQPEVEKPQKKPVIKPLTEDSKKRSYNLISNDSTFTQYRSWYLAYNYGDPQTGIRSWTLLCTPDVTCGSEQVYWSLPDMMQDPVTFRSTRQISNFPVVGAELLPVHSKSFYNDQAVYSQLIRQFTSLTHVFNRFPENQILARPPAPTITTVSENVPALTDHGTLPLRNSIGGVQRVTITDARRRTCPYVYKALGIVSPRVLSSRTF

Row | Substance | sequence coverage by LC-MS/MS after Asp-N digestion [1] [%] | Sequence Coverage (%) by LC-MS/MS after trypsin digestion [2] [%] | Sequence Coverage (%) by LC-MS/MS after trypsin digestion [3] [%] | Sequence Coverage (%) by LC-MS/MS after trypsin digestion [4] [%] | Sequence Coverage (%) by LC-MS/MS after trypsin digestion [5] [%] | Sequence Coverage (%) by LC-MS/MS after trypsin digestion [6] [%] | Sequence Coverage (%) by LC-MS/MS after trypsin digestion [7] [%] | Sequence Coverage (%) by LC-MS/MS after trypsin digestion [8] [%] | Sequence Coverage (%) by LC-MS/MS after trypsin digestion [9] [%] | Sequence Coverage (%) by LC-MS/MS after trypsin digestion [10] [%] | Sequence Coverage (%) by LC-MS/MS after trypsin digestion [11] [%] | Sequence Coverage (%) by LC-MS/MS after trypsin digestion [12] [%] | Sequence Coverage (%) by LC-MS/MS after trypsin digestion [13] [%] | Sequence Coverage (%) by LC-MS/MS after trypsin digestion [14] [%]
1 | Asp-N protease (enzyme) | 99.2 | – | – | – | – | – | – | – | – | – | – | – | – | –
2 | Sequencing grade trypsin (from UniProt P00761) (enzyme) | – | 55.1 | 93.8 | 92.5 | 91.7 | 98.9 | 99.3 | 91.9 | 99.1 | 91.4 | 94.3 | 84.2 | 89.2 | 98.6
